Results published in US20180298377A1 (RESEARCH FOUNDATION FOR THE STATE UNIVERSITY OF NEW YORK, published 2018).
One block for each binder: values may come before it.

How the values were obtained:
Hxt1-F[3] = biological target: T1, Hxt1-F[3] (S. cerevisiae, UniProt P32465 1-570; P00375 107-187); experiment: cell-based or functional assay
T1 sequence (looked up): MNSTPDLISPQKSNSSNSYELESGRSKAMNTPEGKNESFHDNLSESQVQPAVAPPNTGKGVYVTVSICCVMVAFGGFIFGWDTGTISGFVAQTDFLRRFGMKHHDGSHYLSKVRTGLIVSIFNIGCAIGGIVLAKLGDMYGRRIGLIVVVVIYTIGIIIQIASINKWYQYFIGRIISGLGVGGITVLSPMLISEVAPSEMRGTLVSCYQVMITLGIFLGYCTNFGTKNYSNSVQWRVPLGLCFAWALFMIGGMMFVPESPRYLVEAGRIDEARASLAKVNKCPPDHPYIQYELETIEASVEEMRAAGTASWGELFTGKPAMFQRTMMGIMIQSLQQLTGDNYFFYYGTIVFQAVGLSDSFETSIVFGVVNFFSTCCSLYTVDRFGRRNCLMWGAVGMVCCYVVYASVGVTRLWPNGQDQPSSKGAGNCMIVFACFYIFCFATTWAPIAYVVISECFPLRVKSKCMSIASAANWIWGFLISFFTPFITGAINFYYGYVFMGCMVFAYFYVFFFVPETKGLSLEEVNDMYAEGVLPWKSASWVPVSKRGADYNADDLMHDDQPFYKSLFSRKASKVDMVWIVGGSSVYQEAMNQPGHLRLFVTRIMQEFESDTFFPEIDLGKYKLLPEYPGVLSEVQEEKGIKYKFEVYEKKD

Pdr5-F[3] = Pdr5-F[3] (S. cerevisiae, UniProt P33302 1-1511; P00375 107-187); experiment: cell-based or functional assay
[1] = biological target: T2, Pdr5 split Renilla luciferase (Rluc) PCA fusion (S. cerevisiae, UniProt P33302 1-1511); experiment: split Renilla luciferase PCA, luminescence of yeast cells, 200 µM copper sulfate
T2 construct: whole, on cells; DHFR fragment of the Pdr5-F[3] strain replaced by an Rluc PCA fragment by homologous recombination; also called Pdr5 (Rluc PCA strain); not shown: linker of the pAG25/pAG32-linker-Rluc cassettes; Renilla luciferase PCA fragment; DHFR F[3] strains are said to receive Rluc F[1], but the next sentences call preys Rluc
T2 sequence (P33302 whole entry, the tested form may be a part): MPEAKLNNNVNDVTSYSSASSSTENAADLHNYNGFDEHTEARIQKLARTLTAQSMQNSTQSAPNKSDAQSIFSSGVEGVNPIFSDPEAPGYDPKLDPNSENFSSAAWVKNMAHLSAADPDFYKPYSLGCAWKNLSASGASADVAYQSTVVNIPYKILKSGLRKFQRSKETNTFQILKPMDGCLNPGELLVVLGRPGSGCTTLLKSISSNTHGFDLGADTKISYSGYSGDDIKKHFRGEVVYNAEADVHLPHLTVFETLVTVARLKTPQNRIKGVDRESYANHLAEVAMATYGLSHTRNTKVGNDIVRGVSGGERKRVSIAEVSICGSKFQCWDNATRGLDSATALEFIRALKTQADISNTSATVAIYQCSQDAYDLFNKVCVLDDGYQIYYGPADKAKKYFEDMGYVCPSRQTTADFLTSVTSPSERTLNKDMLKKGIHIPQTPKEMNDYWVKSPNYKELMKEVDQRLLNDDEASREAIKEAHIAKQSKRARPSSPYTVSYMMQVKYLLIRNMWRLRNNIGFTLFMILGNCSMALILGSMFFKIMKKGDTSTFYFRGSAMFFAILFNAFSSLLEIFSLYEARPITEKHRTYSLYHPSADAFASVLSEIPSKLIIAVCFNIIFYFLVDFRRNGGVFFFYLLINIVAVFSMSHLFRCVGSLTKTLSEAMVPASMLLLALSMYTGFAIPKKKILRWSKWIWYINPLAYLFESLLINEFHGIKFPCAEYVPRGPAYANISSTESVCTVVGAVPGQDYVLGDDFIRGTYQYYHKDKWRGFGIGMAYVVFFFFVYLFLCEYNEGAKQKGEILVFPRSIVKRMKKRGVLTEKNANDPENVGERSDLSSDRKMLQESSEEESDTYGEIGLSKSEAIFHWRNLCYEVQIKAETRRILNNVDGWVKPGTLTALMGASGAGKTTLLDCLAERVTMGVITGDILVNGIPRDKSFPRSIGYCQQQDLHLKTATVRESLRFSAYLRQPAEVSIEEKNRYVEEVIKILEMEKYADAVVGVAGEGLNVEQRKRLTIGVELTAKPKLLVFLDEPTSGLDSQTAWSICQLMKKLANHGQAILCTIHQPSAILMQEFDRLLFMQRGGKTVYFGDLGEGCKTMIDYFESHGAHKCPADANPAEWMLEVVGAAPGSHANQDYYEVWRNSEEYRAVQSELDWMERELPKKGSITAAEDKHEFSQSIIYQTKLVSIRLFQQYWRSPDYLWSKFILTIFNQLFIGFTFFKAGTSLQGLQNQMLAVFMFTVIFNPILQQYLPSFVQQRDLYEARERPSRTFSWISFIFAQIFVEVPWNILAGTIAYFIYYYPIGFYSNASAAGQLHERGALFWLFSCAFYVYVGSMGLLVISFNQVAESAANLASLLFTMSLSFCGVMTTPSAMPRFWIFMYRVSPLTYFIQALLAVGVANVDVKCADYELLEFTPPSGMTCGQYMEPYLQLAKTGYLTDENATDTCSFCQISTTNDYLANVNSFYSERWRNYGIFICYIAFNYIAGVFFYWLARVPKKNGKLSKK
Procedure: Triplicate fresh colonies of each diploid Rluc PCA strain were grown in 5 ml synthetic dextrose media supplemented with standard concentrations of histidine, leucine, and uracil at 30° C. for 24 h, then diluted 1:32 into 5 ml of the same media supplemented DMSO (0.5%), FK506 (50 μM), hydrogen peroxide (0.001%), sodium chloride (175 mM), or copper sulfate (200 μM). Cells were grown for 24 h at 30° C., diluted 1:32 again into fresh media containing the same supplement, and grown for another 6 h. Cells were counted, and 1-2×10⁷ cells were pelleted, and resuspended in 180 ul phosphate-buffered saline (PBS), pH 7.2 containing 1 mM EDTA. Cells were transferred to white 96-well flat bottom plates (Greiner bio-one #655075). The luciferase substrate, benzyl coelenterazine (Nanolight #301), was diluted 1:10 from the stock (2 mM in absolute ethanol) using 1×PBS, and 20 ul of diluted substrate was added to each sample (to a final concentration of […]). A Centro LB 960 microplate luminometer (Berthold Technologies) was used to measure the Rluc PCA signal, which was integrated for 10 seconds. Changes in luminescence in response to a specific condition were calculated by the following equation: luminescencecondition/luminescenceDMSO.

Snq2-F[3] = Snq2-F[3] (S. cerevisiae, UniProt P32568 2-1501; P00375 107-187); experiment: cell-based or functional assay
Fpr1-F[3] = biological target: T3, Fpr1-F[3] (S. cerevisiae, UniProt P20081 2-114; P00375 107-187); experiment: cell-based or functional assay
T3 sequence (looked up): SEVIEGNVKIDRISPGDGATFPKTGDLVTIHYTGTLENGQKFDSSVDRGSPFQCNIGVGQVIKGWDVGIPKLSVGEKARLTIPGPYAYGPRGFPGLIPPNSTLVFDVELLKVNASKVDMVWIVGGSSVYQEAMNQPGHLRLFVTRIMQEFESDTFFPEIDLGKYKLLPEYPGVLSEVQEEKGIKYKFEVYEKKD

B1: Shr3-F[1,2] (other, UniProt Q02774 1-210, looked up, not shown: small tags and cut ends)
chain: MFSYSDFCSIGTAMILSATTFLMGVFFSNMPYDYHLLFNPNSTQEHFDLALRHYQILHETPLPVIVTLCVVAGIGLVGGTIKVFKPNPELQMFEYCSLGLYVLAICVFLTNVKTGIDCSVSHNWGEVTENQGLAVIASSNIILLVMFAGVIILQIGLWYSNWDLQKRLKEFYAQEEREAANAGKKTEKVDNAKKNDNKSKGAQKRKNAKKVRPLNCIVAVSQNMGIGKNGDLPWPPLRNEFKYFQRMTTTSSVEGKQNLVIMGRKTWFSIPEKNRPLKDRINIVLSRELKEPPRGAHFLAKSLDDALRLIEQPEL
fitness (PPiSeq, MTX(+), benign environment) (Hxt1-F[3]): 0.1

B2: Ftr1-F[1,2] (other, UniProt P40088 1-404, looked up, not shown: small tags and cut ends)
chain: MPNKVFNVAVFFVVFRECLEAVIVISVLLSFLKQAIGEHDRALYRKLRIQVWVGVLLGFIICLAIGAGFIGAYYSLQKDIFGSAEDLWEGIFCMIATIMISMMGIPMLRMNKMQSKWRVKIARSLVEIPHRKRDYFKIGFLSRRYAMFLLPFITVLREGLEAVVFVAGAGITTQGSHASAYPLPVVVGLICGGLVGYLLYYGASKSSLQIFLILSTSILYLISAGLFSRGAWYFENYRFNLASGGDASEGGDGNGSYNIRKAVYHVNCCNPELDNGWDIFNALLGWQNTGYLSSMLCYNIYWLVLIIVLSLMIFEERRGHLPFTKNLQLKHLNPGYWIKNKKKQELTEEQKRQLFAKMENINFNEDGEINVQENYELPEQTTSHSSSQNVATDKEVLHVKADSLVRPLNCIVAVSQNMGIGKNGDLPWPPLRNEFKYFQRMTTTSSVEGKQNLVIMGRKTWFSIPEKNRPLKDRINIVLSRELKEPPRGAHFLAKSLDDALRLIEQPEL
fitness (PPiSeq, MTX(+), benign environment, relative to control strain lacking mDHFR fragments) (Pdr5-F[3]): 0.1

B4: Tpo1-F[1,2] (other, UniProt Q07824 1-586, looked up, not shown: small tags and cut ends)
chain: MSDHSPISNKENHLLPSDSSRSSSSDMHSTGTTGTTGVEPVDFTGEGAKYTTATEGNGGADLAIQRTTTMNSAAESEVNITRRLTKILTGSVNEPDRVEVDYTNCAPMGGDRPYPPSLPSRDLYEVTFDGPNDPLHPFNWPMKKKVLLCLVLCLDSIAIAMCSSIFASAVPQICEIYHVIEVVAILGITLFVLGFAASPVIYAPLSELYGRKGVLVLSAFGFALFQFAVATAENLQTIFICRFFGGFIGAAPMAVVPAAFADMFDTNVRGKAIALFSLGVFVGPILSPVMGSYIAQRTTWRWLEYVVGCFASAVFVAIVLFFEETHHPTILVNKAKQMRKQSNNWGIHAAHEDVELSIKDIVQKTVTRPIIMLFVEPLLLFVTIYNSFVYGILYLLLEAYPLVFVEGYGFTENGELPYIALIIGMMVCAAFIWYMDNDYLKRCRAKGKLVPEARLYAMVIAGTVFPIGILWFCWTGYYPHKIHWMVPTVGGAFIGFGLMGIFLPCLNYIIESYLLLAASAVAANTFMRSAFGACFPLFAGYMFRGMGIGWAGLLLGLFAAAMIPVPLLFLKYGESIRKKSKYAYAAVRPLNCIVAVSQNMGIGKNGDLPWPPLRNEFKYFQRMTTTSSVEGKQNLVIMGRKTWFSIPEKNRPLKDRINIVLSRELKEPPRGAHFLAKSLDDALRLIEQPEL
fitness (PPiSeq, MTX(+), benign environment) (Snq2-F[3]): 0.08

More lines, now with the values ahead:

binding result [1]: binds
B3: Ftr1 split Renilla luciferase (Rluc) PCA fusion (other, S. cerevisiae, UniProt P40088 1-404, looked up)
chain: MPNKVFNVAVFFVVFRECLEAVIVISVLLSFLKQAIGEHDRALYRKLRIQVWVGVLLGFIICLAIGAGFIGAYYSLQKDIFGSAEDLWEGIFCMIATIMISMMGIPMLRMNKMQSKWRVKIARSLVEIPHRKRDYFKIGFLSRRYAMFLLPFITVLREGLEAVVFVAGAGITTQGSHASAYPLPVVVGLICGGLVGYLLYYGASKSSLQIFLILSTSILYLISAGLFSRGAWYFENYRFNLASGGDASEGGDGNGSYNIRKAVYHVNCCNPELDNGWDIFNALLGWQNTGYLSSMLCYNIYWLVLIIVLSLMIFEERRGHLPFTKNLQLKHLNPGYWIKNKKKQELTEEQKRQLFAKMENINFNEDGEINVQENYELPEQTTSHSSSQNVATDKEVLHVKADSL
notes: whole, on cells; DHFR fragment of the Ftr1-F[1,2] strain replaced by an Rluc PCA fragment by homologous recombination; also called Ftr1 (Rluc PCA strain); not shown: linker of the pAG25/pAG32-linker-Rluc cassettes; Renilla luciferase PCA fragment; DHFR F[1,2] strains are said to receive Rluc F[2], but the next sentences call baits Rl

fitness (PPiSeq, MTX(+), benign environment) (Pdr5-F[3]): 0.06
B5: Fmp45-F[1,2] (other, UniProt Q07651 1-309, looked up, not shown: small tags and cut ends)
chain: MIFKRFVNLLVFLFLLGAGLLTFFLILSGGRESGTLKNFYWLQADTNGFNSAPSTTRWYNYNWCGYEDGQLANCSSRAPAKPFSPRDNFGNSVNLPSSFRNNRDTYYYLSRVGWAMLLISLFFIVLALVPGFLATFLPFKAVPVLYCVLSWLAFFFIILAACLYTGCYVKARKTFRNSGRSARLGPKNFAFIWTSVFLMLVNAIWSTIFSATHKAHSTYSDHDMYAQYESPSVDTGAQMEKSTYNSGATDGAGPITAAPVVGQPQPTTTTTPAGNGKFFQKLKTRKQVPSAELEPAGDGGLAGPVTVRDVRPLNCIVAVSQNMGIGKNGDLPWPPLRNEFKYFQRMTTTSSVEGKQNLVIMGRKTWFSIPEKNRPLKDRINIVLSRELKEPPRGAHFLAKSLDDALRLIEQPEL

fitness in 50 µM FK506 against the benign environment (PPiSeq, MTX(+)) (Fpr1-F[3]): ~10 fold
B6: Hom3-F[1,2] (other, UniProt P10869 1-527, looked up, not shown: small tags and cut ends)
chain: MPMDFQPTSSHSNWVVQKFGGTSVGKFPVQIVDDIVKHYSKPDGPNNNVAVVCSARSSYTKAEGTTSRLLKCCDLASQESEFQDIIEVIRQDHIDNADRFILNPALQAKLVDDTNKELELVKKYLNASKVLGEVSSRTVDLVMSCGEKLSCLFMTALCNDRGCKAKYVDLSHIVPSDFSASALDNSFYTFLVQALKEKLAPFVSAKERIVPVFTGFFGLVPTGLLNGVGRGYTDLCAALIAVAVNADELQVWKEVDGIFTADPRKVPEARLLDSVTPEEASELTYYGSEVIHPFTMEQVIRAKIPIRIKNVQNPLGNGTIIYPDNVAKKGESTPPHPPENLSSSFYEKRKRGATAITTKNDIFVINIHSNKKTLSHGFLAQIFTILDKYKLVVDLISTSEVHVSMALPIPDADSLKSLRQAEEKLRILGSVDITKKLSIVSLVGKHMKQYIGIAGTMFTTLAEEGINIEMISQGANEINISCVINESDSIKALQCIHAKLLSERTNTSNQFEHAIDERLEQLKRLGIVRPLNCIVAVSQNMGIGKNGDLPWPPLRNEFKYFQRMTTTSSVEGKQNLVIMGRKTWFSIPEKNRPLKDRINIVLSRELKEPPRGAHFLAKSLDDALRLIEQPEL
